From US20150344544A1 (ACADEMIA SINICA, published 2015) come the findings set out here.

Test [1] concerns the target T1, FcγRIIIa (UniProt P08637 17-208, limits assumed).
T1 construct: Soluble receptor used in ELISA and SPR; source and construct not described; also called FcRIIIA
Briefly: SPR. A general note: SPR reads the build-up and loss of mass on a sensor chip optically.

For a further test, the target named is T2, FcγRIIb (UniProt P31994 43-217, limits assumed).
T2 construct: Used in ELISA; construct not described
T2 sequence (looked up): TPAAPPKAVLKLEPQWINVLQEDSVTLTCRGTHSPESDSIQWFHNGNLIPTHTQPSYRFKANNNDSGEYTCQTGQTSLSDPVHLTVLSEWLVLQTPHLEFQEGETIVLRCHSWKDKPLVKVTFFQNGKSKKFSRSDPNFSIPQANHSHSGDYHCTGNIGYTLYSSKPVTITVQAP
Briefly: ELISA. Background: ELISA stands for enzyme-linked immunosorbent assay.

Another test has as its target T3, FcγRIIa (UniProt P12318 34-217, limits assumed).
T3 construct: Used in ELISA; construct not described
T3 sequence (looked up): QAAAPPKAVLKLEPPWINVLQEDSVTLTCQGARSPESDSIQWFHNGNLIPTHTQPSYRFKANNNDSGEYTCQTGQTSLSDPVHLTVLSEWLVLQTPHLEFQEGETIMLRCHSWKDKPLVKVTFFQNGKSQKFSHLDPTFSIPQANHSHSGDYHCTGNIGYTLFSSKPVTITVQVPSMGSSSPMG
Nature of the test: ELISA.

Test [2] has as its target T1, FcγRIIIa. Briefly: ELISA.
In test [3] the target is T4, C1q (UniProt P02745 23-245; P02746 28-253; P02747 29-245).
T4 construct: Complement component C1q used in ELISA; source not described
Nature of the test: ELISA.

In the next test the target is T5, FcγRI (UniProt P12314 16-288, limits assumed).
T5 construct: Used in ELISA; construct not described
Nature of the test: ELISA.

Test [4] addresses T1, FcγRIIIa. Briefly: cell-based or functional assay.
The target in test [5] is T4, C1q. Nature of the test: cell-based or functional assay.
The target of test [6] is T1, FcγRIIIa. Nature of the test: SPR; commercial Rituxan, not glycoengineered (reference).
For test [7], the target named is T1, FcγRIIIa. Nature of the test: SPR, antibody captured with Human Fab capture kit, single cycle kinetics. The text has this:
Analyzed antibodies were captured by means of the Human Fab capture kit and detected with the single cycle kinetic method.

T5 sequence (P12314 16-288 limits assumed): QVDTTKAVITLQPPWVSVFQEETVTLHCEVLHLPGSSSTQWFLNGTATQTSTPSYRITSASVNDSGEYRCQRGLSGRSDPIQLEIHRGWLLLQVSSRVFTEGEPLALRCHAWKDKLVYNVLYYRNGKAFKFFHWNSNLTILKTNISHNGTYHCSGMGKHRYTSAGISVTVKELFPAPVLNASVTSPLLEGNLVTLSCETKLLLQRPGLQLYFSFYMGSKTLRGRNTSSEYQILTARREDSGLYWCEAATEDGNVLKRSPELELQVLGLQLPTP
T1 sequence (P08637 17-208 limits assumed): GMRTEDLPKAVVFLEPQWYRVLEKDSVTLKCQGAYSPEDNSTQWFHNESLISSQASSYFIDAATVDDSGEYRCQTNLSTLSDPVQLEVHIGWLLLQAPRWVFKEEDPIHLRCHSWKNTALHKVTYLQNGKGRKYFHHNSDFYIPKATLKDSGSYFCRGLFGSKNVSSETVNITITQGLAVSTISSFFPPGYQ
T4 sequence (P02745 23-245 limits assumed, chain 1 of 3): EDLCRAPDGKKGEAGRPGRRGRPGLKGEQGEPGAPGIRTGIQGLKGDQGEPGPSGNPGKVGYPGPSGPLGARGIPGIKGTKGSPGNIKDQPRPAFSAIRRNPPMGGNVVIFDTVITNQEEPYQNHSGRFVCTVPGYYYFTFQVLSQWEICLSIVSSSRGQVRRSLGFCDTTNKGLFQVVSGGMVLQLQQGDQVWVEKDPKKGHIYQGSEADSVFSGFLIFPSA
T4 sequence (P02746 28-253 limits assumed, chain 2 of 3): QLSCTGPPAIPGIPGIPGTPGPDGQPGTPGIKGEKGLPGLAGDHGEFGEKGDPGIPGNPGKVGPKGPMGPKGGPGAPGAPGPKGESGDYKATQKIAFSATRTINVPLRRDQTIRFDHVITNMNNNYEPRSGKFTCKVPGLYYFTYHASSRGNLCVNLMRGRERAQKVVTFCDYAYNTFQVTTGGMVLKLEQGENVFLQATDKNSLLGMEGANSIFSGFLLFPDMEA
T4 sequence (P02747 29-245 limits assumed, chain 3 of 3): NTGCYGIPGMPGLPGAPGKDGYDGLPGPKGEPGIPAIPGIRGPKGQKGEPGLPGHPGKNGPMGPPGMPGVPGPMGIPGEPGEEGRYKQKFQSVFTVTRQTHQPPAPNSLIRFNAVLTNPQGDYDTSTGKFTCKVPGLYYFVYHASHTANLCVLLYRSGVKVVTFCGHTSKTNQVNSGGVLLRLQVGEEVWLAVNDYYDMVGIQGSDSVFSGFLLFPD

B1: Rituximab (antibody, human IgG1, kappa)
heavy: not shown
light: QIVLSQSPAILSASPGEKVTMTCRASSSVSYIHWFQQKPGSSPKPWIYATSNLASGVPVRFSGSGSGTSYSLTISRVEAEDAATYYCQQWTSNPPTFGGGTKLEIKRTVAAPSVFIFPPSDEQLKSGTASVVCLLNNFYPREAKVQWKVDNALQSGNSQESVTEQDSKDSTYSLSSTLTLSKADYEKHKVYACEVTHQGLSSPVTKSFNRGEC
notes: Commercial IgG1 with its native heterogeneous Fc glycans; also called Rituxan; Roche-Rituximab
Turning to B1, the results for the Kd with FcγRIIIa [1] and with FcγRIIIa [6] were 100 nM and ≤ 300 nM, respectively. Besides, the concentration for a half-maximal effect (EC50) (usually the concentration that produces a half-maximal response) in the test with FcγRIIb is 0.51 nM; with FcγRIIa, 5.4 nM; with FcγRIIIa [2], 6.2 to 9 nM; with C1q [3], 6.5 nM; with FcγRI, 0.19 nM. Besides, the “EC50 (ug/ml), PBMC mediated ADCC on Raji cells” value (from here on “EC50 (ug/ml) … on Raji cells”) with FcγRIIIa [4] was determined as 0.319 µg/mL. Besides, in the test with FcγRIIIa [4], the “EC50 (ug/ml), PBMC mediated ADCC on Ramos cells” value stood at 4.38 µg/mL. Besides, the “EC50 (ug/ml), PBMC mediated ADCC on SKW6.4 cells” value (“EC50 (ug/ml) … on SKW6.4 cells” for short) with FcγRIIIa [4] turned out to be 2.07 µg/mL. The “EC50 (ug/ml), CDC assay on Ramos cells, FACS” value (shortened to “EC50 (ug/ml), CDC assay”) with C1q [5] was determined as 0.033 µg/mL.

B2: 2,3-NSCT-Rituximab (antibody, human IgG1, kappa)
heavy: not shown
light: B1 light
modifications: homogeneous afucosylated Fc N-glycan (Asn-297), 2,3-sialylated: Sia2(α2-3)Gal2GlcNAc2Man3GlcNAc2
B2 showed a 50% effective concentration (EC50) with FcγRIIb of 0.53 nM. In addition, it took 16.5 nM to reach a half-maximal effect in the test with FcγRIIa (EC50). In the test with FcγRIIIa [4], the “EC50 (ug/ml) … on Raji cells” value amounted to 0.086 µg/mL; the “EC50 (ug/ml), PBMC mediated ADCC on Ramos cells” value amounted to 1.45 µg/mL; the “EC50 (ug/ml) … on SKW6.4 cells” value was found to be 1.22 µg/mL. Further, the “EC50 (ug/ml), CDC assay” value with C1q [5] came out at 0.086 µg/mL.

B3: G9 glycoengineered Rituximab (antibody, human IgG1, kappa)
heavy: not shown
light: B1 light
modifications: homogeneous afucosylated bisected Fc N-glycan (Asn-297): GlcNAc3Man3GlcNAc2
notes: IgG1; bisected glycan; also called anti-CD20 GAb107
Consider B3, for which the dissociation constant Kd (usually the free concentration of one partner at which half of the binding sites on the other are occupied at equilibrium, for simple one-to-one binding) with FcγRIIIa [7] was determined as 26.2 nM.

B4: G6 glycoengineered Rituximab (antibody, human IgG1, kappa)
heavy: not shown
light: B1 light
modifications: homogeneous afucosylated Fc N-glycan (Asn-297): GalGlcNAc2Man3GlcNAc2
notes: IgG1; also called anti-CD20 GAb106
For the molecule B4, the Kd with FcγRIIIa [1] was 7 to 30 nM; with FcγRIIIa [7], 27.2 nM.

B5: G3 glycoengineered Rituximab (antibody, human IgG1, kappa)
heavy: not shown
light: B1 light
modifications: homogeneous afucosylated Fc N-glycan (Asn-297): GlcNAcMan3GlcNAc2
notes: IgG1; also called anti-CD20 GAb109
Molecule B5 displayed a dissociation constant Kd with FcγRIIIa [7] of 83.6 nM.

B6: G7 glycoengineered Rituximab (antibody, human IgG1, kappa)
heavy: not shown
light: B1 light
modifications: homogeneous afucosylated Fc N-glycan (Asn-297): Man3GlcNAc2
notes: IgG1; also called anti-CD20 GAb111
In the test with FcγRIIIa [7], B6 came in with a dissociation constant (Kd) of 62.7 nM.

B7: 2,6-NSCT-Rituximab (antibody, human IgG1, kappa)
heavy: not shown
light: B1 light
modifications: homogeneous afucosylated Fc N-glycan (Asn-297): Sia2(α2-6)Gal2GlcNAc2Man3GlcNAc2
notes: also called anti-CD20 GAb101
For B7, the EC50 is 0.28 nM in the test with FcγRIIb; 3 nM in the test with FcγRIIa; 0.24 to 0.27 nM in the test with FcγRIIIa [2]; 8 nM in the test with C1q [3]; 0.23 nM in the test with FcγRI. In the test with FcγRIIIa [4], the “EC50 (ug/ml) … on Raji cells” value came out at 0.022 µg/mL. In the test with FcγRIIIa [4], the “EC50 (ug/ml), PBMC mediated ADCC on Ramos cells” value came out at 0.377 µg/mL. Further, in the test with FcγRIIIa [4], the “EC50 (ug/ml) … on SKW6.4 cells” value amounted to 0.276 µg/mL. Further, the “EC50 (ug/ml), CDC assay” value with C1q [5] was 0.039 µg/mL. This molecule also gave a Kd with FcγRIIIa [7] of 8.28 nM.

B8: G1 glycoengineered Rituximab (antibody, human IgG1, kappa)
heavy: not shown
light: B1 light
modifications: homogeneous afucosylated Fc N-glycan (Asn-297): Gal2GlcNAc2Man3GlcNAc2
notes: IgG1; also called anti-CD20 GAb104
B8 showed a Kd with FcγRIIIa [7] of 9.33 nM.

B9: mono-GlcNAc Rituximab (antibody, human IgG1, kappa)
heavy: not shown
light: B1 light
modifications: single GlcNAc (defucosylated) at the Fc N-glycosylation site (Asn-297)
notes: IgG1; made from Rituximab with fucosidase BfFucH and an endoglycosidase; also called N-Rituximab
For the molecule B9, the half-maximal effective concentration (EC50) with FcγRIIb came out at 0.32 nM; with FcγRIIIa [2], 36.3 nM; with FcγRI, 0.85 nM.

B10: G8 glycoengineered Rituximab (antibody, human IgG1, kappa)
heavy: not shown
light: B1 light
modifications: homogeneous afucosylated Fc N-glycan (Asn-297): GlcNAcMan3GlcNAc2
notes: IgG1; also called anti-CD20 GAb110
In the case of B10, in the test with FcγRIIIa [7], the dissociation constant (Kd) turned out to be 120 nM.
